Data taken from article PMC7673117.

What was measured:
[1] = target: HLA-E loaded with Peptide 12 (…) on 721.174 cells (human (endogenous in 721.174 cells) | Epstein-Barr virus (B95.8 laboratory strain)) (UniProt P13747)
[2] = target: HLA-E loaded with Peptide 19 on 721.174 cells (human (endogenous in 721.174 cells) | Epstein-Barr virus (B95.8 laboratory strain)) (UniProt P13747)
[3] = target: HLA-E loaded with Peptide 9 on 721.174 cells (human (endogenous in 721.174 cells) | Epstein-Barr virus (B95.8 laboratory strain)) (UniProt P13747)

Measured: cytotoxicity of sorted NKG2A+NKG2C- NK cells against peptide-pulsed 721.174 cells, E:T 3:1, 5 h

NKG2A/CD94 receptor on primary human NK cells (from UniProt P26715;Q13241)
> 80%: all assays above
